Patent US20240218079A1, “PLASMA KALLIKREIN ANTIBODIES AND USES THEREOF” (Astria Therapeutics, Inc., priority 2021, published 2024)

How the values were obtained:
[1] = biological target: Hepsin; assay: cell-based or functional assay
[2] = biological target: Thrombin a; assay: cell-based or functional assay

DX-2930 (antibody), sequence (VH): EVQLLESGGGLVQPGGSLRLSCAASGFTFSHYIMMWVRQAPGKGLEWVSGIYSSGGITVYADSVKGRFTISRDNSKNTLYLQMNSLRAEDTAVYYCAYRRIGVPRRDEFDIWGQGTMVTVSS
DX-2930 (antibody), sequence (VL): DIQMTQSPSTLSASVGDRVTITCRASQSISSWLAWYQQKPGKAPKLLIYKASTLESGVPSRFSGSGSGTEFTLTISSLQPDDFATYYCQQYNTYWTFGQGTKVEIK

DX-2930 (antibody)
> 1000 nM: IC50, protease inhibition assay, fluorescent peptide substrate, Duplicate 1 [1] | IC50, protease inhibition assay, fluorescent peptide substrate, Duplicate 2 [1] | IC50, protease inhibition assay, fluorescent peptide substrate, Duplicate 1 [2] | IC50, protease inhibition assay, fluorescent peptide substrate, Duplicate 2 [2]
